15 molecules from patent US20230095004 (Aptitude Medical Systems, Inc., published 2023) can be followed below.

Residue numbers refer to the chain shown, from its start.

To fix the notation:
T1: VEGF-165 (VEGF-A) (Homo sapiens)
T1 chain: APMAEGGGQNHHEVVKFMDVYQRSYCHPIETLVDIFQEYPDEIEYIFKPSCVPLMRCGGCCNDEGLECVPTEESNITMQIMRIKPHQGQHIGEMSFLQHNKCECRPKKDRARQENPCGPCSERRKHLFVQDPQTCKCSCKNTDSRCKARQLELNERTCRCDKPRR

B1: AMSB107 (ssRNA)
RNA: UGCAUGCAUUUUACCAGUGAGUCGGAUCUCCGCAUAGAUAAGCCAACAAACGUACAUUCUCUGUUAGUAUUUUCUGCG
modifications: 2'-F all nucleotides
B2: AMSB108.0 (ssRNA)
RNA: CGCAUAGAUAAGCCAACAAACGUACAUUCUCUGUUAGUAUUUUCUGCGUGCCAGUGAGUCGGAUCUCCACAGUUCUCUGUG
modifications: 2'-F all nucleotides
B3: AMSB107.2 (ssRNA)
RNA: UGCCAGUGAGUCGGAUCUCCACAGUAGAUAAGCCAACAAACGUACAUUCUCUGUUAGUAUUUUCCUGUG
modifications: 2'-F all nucleotides
B4: AMSB107.6 (ssRNA)
RNA: UGCAUGCAACCAGUGAGUCGGAUCUCCGCAUAGAUAAGCCAACAAACGUACAUUCUCUGUUAGUAUUUUCUGCG
modifications: 2'-F all nucleotides
B5: AMSB107.1 (ssRNA)
RNA: UGCCAGUGAGUCGGAUCUCCGCAUAGAUAAGCCAACAAACGUACAUUCUCUGUUAGUAUUUUCUGCG
modifications: 2'-F all nucleotides
B6: AMSB107.5 (ssRNA)
RNA: AUGCAUGCAUUUUUACCAGUGAGUCGGAUCUCCGCAUAGAUAAGCCAACAAACGUACAUUCUCUGUUAGUAUUUUCUGCG
modifications: 2'-F all nucleotides
B7: AMSB107.10 (ssRNA)
RNA: B6 RNA with A1U, U2G, G3C, C4A, A5U, U6G, G7C, C8A, A9U
modifications: 2'-F all nucleotides
B8: AMSB107.8 (ssRNA)
RNA: UUUUGCAUGCAUUUUACCAGUGAGUCGGAUCUCCGCAUAGAUAAGCCAACAAACGUACAUUCUCUGUUAGUAUUUUCUGCG
modifications: 2'-F all nucleotides
B9: AMSB107.11 (ssRNA)
RNA: UGCAUGCAUUUUCCAGUGAGUCGGAUCUCCGCAUAGAUAAGCCAACAAACGUACAUUCUCUGUUAGUAUUUUCUGCG
modifications: 2'-F all nucleotides
B10: AMSB107.4 (ssRNA)
RNA: GCAUGCUUUUACCAGUGAGUCGGAUCUCCGCAUAGAUAAGCCAACAAACGUACAUUCUCUGUUAGUAUUUUCUGCG
modifications: 2'-F all nucleotides
B11: AMSB107.9 (ssRNA)
RNA: B10 RNA with G1U, C2G, A3C, U4A, G5U, C6G, U7C, U8A
modifications: 2'-F all nucleotides
B12: AMSB107.0 (ssRNA)
RNA: ACCCUUGCUUGCGUAGCAUUUUACCAGUGAGUCGGAUCUCCGCAUAGAUAAGCCAACAAACGUACAUUCUCUGUUAGUAUUUUCUGCG
modifications: 2'-F all nucleotides
B13: AMSB107.16 (ssRNA)
RNA: UGCAUGCAUUUUACCAGUGAGUCGGAUCUCUUUCGCAUAGAUAAGCCAACAAACGUACAUUCUCUGUUAGUAUUUUCUGCG
modifications: 2'-F all nucleotides
B14: AMSB107.19 (ssRNA)
RNA: B1 RNA
modifications: 2'-F; LNA at selected positions of the VEGF consensus as printed
B15: AMSB107.7 (ssRNA)
RNA: UGCAUGCACAGUGAGUCGGAUCUCCGCAUAGAUAAGCCAACAAACGUACAUUCUCUGUUAGUAUUUUCUGCG
modifications: 2'-F all nucleotides

The first series concerns the target T1, VEGF-165 (VEGF-A). Put plainly: flow. To be noted: tags: recombinant; chain copies: 2.
For B1, the dissociation constant (Kd) (usually the constant that tells how readily two partners part at equilibrium) turned out to be 0.054 nM. Still for that read-out and setting: the same measure for B2: 15.7 nM; for B3: 12.9 nM; for B4: 2.34 nM. In the case of B5, the equilibrium dissociation constant (Kd) was determined as 13.9 nM. Still for that read-out and setting: the result for B6 reads 0.052 nM; that for B7, 0.051 nM; that for B8, 0.048 nM. As for B9, the Kd was found to be 0.057 nM. Still for that read-out and setting: the result for B10 reads 0.225 nM; that for B11, 0.151 nM. The same measure, in the same setting: the same measure for B12: 1.29 nM.

The target of a further series is Angiopoietin-2 (Ang2) (Homo sapiens, UniProt O15123 O15123:19-496). Put plainly: flow. To be noted: tags: His tag; R&D Systems 623-AN.
Angiopoietin-2 (Ang2), sequence (O15123 19-496, one chain of several): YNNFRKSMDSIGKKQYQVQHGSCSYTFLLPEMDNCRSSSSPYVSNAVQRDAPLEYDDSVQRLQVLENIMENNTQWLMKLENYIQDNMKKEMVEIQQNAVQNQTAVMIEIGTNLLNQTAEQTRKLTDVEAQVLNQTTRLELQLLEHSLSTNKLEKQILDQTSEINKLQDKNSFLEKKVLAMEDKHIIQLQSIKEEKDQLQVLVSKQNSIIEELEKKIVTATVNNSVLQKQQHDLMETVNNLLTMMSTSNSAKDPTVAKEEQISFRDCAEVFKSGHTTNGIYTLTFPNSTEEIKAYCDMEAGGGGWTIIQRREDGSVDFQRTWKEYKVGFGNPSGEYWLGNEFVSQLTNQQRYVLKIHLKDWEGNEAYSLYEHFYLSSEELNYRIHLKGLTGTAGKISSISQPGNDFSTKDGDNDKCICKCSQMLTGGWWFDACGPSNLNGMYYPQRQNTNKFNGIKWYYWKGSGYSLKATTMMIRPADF
On to B13, for which the dissociation constant Kd was found to be 0.08 nM. The same measure, in the same setting: the same measure for B1: 0.087 nM; for B14: 0.083 nM. B2 came in with a Kd of 0.52 nM. Still for that read-out and setting: the same measure for B3: 0.82 nM; for B4: 0.074 nM. On the same count and under the same terms, the result for B5 reads 0.885 nM; that for B15, 0.085 nM.

B6 registered a Kd of 0.096 nM.

For the molecule B7, the dissociation constant Kd was 0.089 nM.

Molecule B8 gave an equilibrium dissociation constant (Kd) of 0.095 nM. Take B9: the Kd is 0.095 nM. On the same count and under the same terms, the same measure for B10: 0.237 nM; for B11: 0.15 nM. Regarding B12, the equilibrium dissociation constant (Kd) came to 0.222 nM.
